Laboratory results published in the Human Domainome abundance scans (Beltran et al. 2025).
± gives the uncertainty stated by the source.

B1: FERM and PDZ domain-containing protein 4, residues 75 to 154; numbered along this chain, Q14CM0 (parent)
chain: APRKVEMRRDPVLGFGFVAGSEKPVVVRSVTPGGPSEGKLIPGDQIVMINDEPVSAAPRERVIDLVRSCKESILLTVIQP

Variants of: B1
Experiment: abundance fitness (aPCA) (normalised: wild type 0, dead -1); higher = more abundant; growth selection in yeast, the domain comes from the species named
Settings: Homo sapiens

Variant	abundance fitness
S21M	-0.033 ± 0.034
S21N	-0.002 ± 0.047
S21P	-0.169 ± 0.031
S21R	-0.082 ± 0.022
S21T	-0.12 ± 0.031
S21V	-0.25 ± 0.026
S21W	-0.088 ± 0.027
E22A	-0.075 ± 0.024
E22C	-0.074 ± 0.034
E22G	-0.026 ± 0.021
E22H	-0.202 ± 0.051
E22I	-0.336 ± 0.05
E22K	-0.199 ± 0.035
E22L	-0.315 ± 0.028
E22M	-0.22 ± 0.035
E22N	-0.125 ± 0.048
E22P	-0.979 ± 0.086
E22Q	-0.029 ± 0.035
E22S	-0.126 ± 0.025
E22T	-0.156 ± 0.034
E22V	-0.066 ± 0.024
E22W	-0.305 ± 0.029
E22Y	-0.012 ± 0.044
K23A	-0.097 ± 0.026

Variant	abundance fitness
K23C	-0.035 ± 0.035
K23D	-0.042 ± 0.039
K23F	-0.066 ± 0.04
K23H	-0.026 ± 0.043
K23I	-0.085 ± 0.05
K23L	-0.066 ± 0.025
K23M	-0.01 ± 0.032
K23N	0.015 ± 0.041
K23P	-0.317 ± 0.033
K23Q	-0.039 ± 0.034
K23T	-0.037 ± 0.031
K23V	-0.136 ± 0.026
K23W	-0.076 ± 0.028
P24A	-0.448 ± 0.029
P24C	-0.51 ± 0.045
P24D	-0.433 ± 0.05
P24E	-0.51 ± 0.036
P24F	-0.686 ± 0.076
P24G	-0.329 ± 0.022
P24H	-0.501 ± 0.05
P24I	-0.777 ± 0.08
P24K	-0.64 ± 0.049
P24L	-0.77 ± 0.037
P24M	-0.53 ± 0.042

Variant	abundance fitness
P24N	-0.333 ± 0.054
P24Q	-0.472 ± 0.041
P24R	-0.572 ± 0.025
P24S	-0.48 ± 0.031
P24T	-0.471 ± 0.037
P24V	-0.725 ± 0.034
P24W	-0.947 ± 0.049
P24Y	-0.691 ± 0.081
V25A	-0.052 ± 0.026
V25C	-0.005 ± 0.032
V25D	-0.535 ± 0.048
V25E	-0.796 ± 0.047
V25F	-0.127 ± 0.035
V25G	-0.467 ± 0.025
V25H	-0.135 ± 0.043
V25I	-0.116 ± 0.036
V25K	-0.889 ± 0.068
V25L	0.006 ± 0.024
V25M	0.157 ± 0.046
V25N	-0.23 ± 0.046
V25Q	-0.373 ± 0.034
V25R	-0.326 ± 0.023
V25S	0 ± 0.026
V25T	0.004 ± 0.031

Variant	abundance fitness
V25W	-0.078 ± 0.028
V25Y	-0.144 ± 0.047
V26A	-0.113 ± 0.025
V26C	-0.07 ± 0.033
V26D	-0.135 ± 0.039
V26E	-0.036 ± 0.026
V26F	-0.123 ± 0.043
V26G	-0.446 ± 0.023
V26H	-0.159 ± 0.044
V26I	-0.025 ± 0.043
V26K	-0.048 ± 0.028
V26L	-0.038 ± 0.024
V26M	-0.012 ± 0.032
V26P	-0.702 ± 0.042
V26Q	-0.011 ± 0.03
V26S	-0.116 ± 0.025
V26T	0.008 ± 0.028
V26W	-0.379 ± 0.029
V26Y	-0.123 ± 0.043
V27A	-0.591 ± 0.033
V27C	-0.282 ± 0.038
V27D	-0.802 ± 0.065
V27E	-0.725 ± 0.043
V27F	-0.79 ± 0.092

Variant	abundance fitness
V27G	-0.938 ± 0.032
V27H	-0.878 ± 0.14
V27I	-0.07 ± 0.039
V27K	-0.916 ± 0.073
V27L	-0.584 ± 0.031
V27M	-0.799 ± 0.063
V27N	-0.851 ± 0.099
V27P	-0.764 ± 0.058
V27R	-0.958 ± 0.037
V27S	-0.947 ± 0.053
V27T	-0.705 ± 0.053
V27W	-1.1 ± 0.068
V27Y	-1.02 ± 0.17
R28A	-0.032 ± 0.023
R28C	-0.136 ± 0.032
R28D	-0.038 ± 0.034
R28E	0.034 ± 0.025
R28F	-0.134 ± 0.043
R28G	-0.014 ± 0.02
R28H	-0.08 ± 0.039
R28K	-0.002 ± 0.03
R28L	-0.036 ± 0.024
R28M	-0.065 ± 0.029
R28N	0.001 ± 0.038

Variant	abundance fitness
R28P	-0.725 ± 0.052
R28Q	0.027 ± 0.031
R28T	0.005 ± 0.029
R28V	-0.089 ± 0.022
R28Y	-0.137 ± 0.037
S29A	-0.074 ± 0.024
S29C	-0.136 ± 0.03
S29D	-0.034 ± 0.037
S29E	0.007 ± 0.026
S29F	-0.197 ± 0.039
S29G	-0.055 ± 0.021
S29H	-0.139 ± 0.039
S29I	-0.221 ± 0.047
S29K	-0.059 ± 0.032
S29L	-0.152 ± 0.023
S29M	-0.083 ± 0.029
S29N	-0.032 ± 0.041
S29P	-0.826 ± 0.044
S29Q	-0.026 ± 0.027
S29R	-0.069 ± 0.02
S29T	-0.029 ± 0.027
S29V	-0.136 ± 0.023
S29W	-0.22 ± 0.024
S29Y	-0.189 ± 0.039

Variant	abundance fitness
V30A	-0.499 ± 0.026
V30C	-0.102 ± 0.031
V30D	-0.804 ± 0.065
V30E	-0.901 ± 0.048
V30F	-0.416 ± 0.051
V30H	-0.967 ± 0.1
V30I	-0.081 ± 0.035
V30K	-0.87 ± 0.056
V30L	-0.115 ± 0.024
V30M	-0.335 ± 0.035
V30P	-0.864 ± 0.055
V30Q	-0.801 ± 0.052
V30R	-0.914 ± 0.031
V30S	-0.743 ± 0.035
V30T	-0.089 ± 0.029
V30W	-0.756 ± 0.037
V30Y	-0.521 ± 0.049
T31A	-0.045 ± 0.025
T31C	-0.108 ± 0.033
T31D	-0.058 ± 0.036
T31E	-0.013 ± 0.032
T31F	-0.149 ± 0.033
T31G	-0.222 ± 0.029
